# From patent US20240343799A1
# Residue numbers refer to the chain shown, from its start.
# B1: polmab (antibody, human IgG1, kappa, V domains shown)
# VH: EVQLVESGGGLVQPGGSLRLSCAASGYTFSSYWIEWVRQAPGKGLEWIGEILPGGGDTNYNEIFKGRATFSADTSKNTAYLQMNSLRAEDTAVYYCTRRVPIRLDYWGQGTLVTVSS
# VL: DIQLTQSPSSLSASVGDRVTITCKASQSVDYEGDSFLNWYQQKPGKAPKLLIYAASNLESGVPSRFSGSGSGTDFTLTISSLQPEDFATYYCQQSNEDPLTFGQGTKVEIKR
# B2: A7v14b (antibody, V domains shown)
# VH: EVQLVQSGAEVKKPGASVKVSCKASGYTFTTYYMNWVRQAPGQGLEWIGMIDPSDSETHYNQKFQGRATLTVDTSTSTAYLELSSLRSEDTAVYYCSRSLAFWGQGTLVTVSS
# VL: DIVMTQTPLSLPVTPGQPASISCKSSQSLLDSDGKTYLNWLLQKPGQSPQSLIYLVSKLDSGVPDRFSGSGSGTDFTLKISRVEAEDVGVYYCWQGTHFPQTFGQGTKVEIK
# B3: hz11G10.9.p1 (antibody, V domains shown)
# VH: QVQLVQSGAEVKKPGASVKVSCKASGYTFTDYWVNWVRQAPGQGLEWMGMIDPSDSETHYNQMFNDRVTMTVDTSTSTVYMELSSLRSEDTAVYYCTRSNYYWGQGTLVTVSS
# VL: B2 VL with P12S, D33E, Q101L, Q105G
# B4: hz38D9B3.11 (antibody, V domains shown)
# VH: QVQLVQSGSELKKPGASVKVSCKASGYTFTDYSMHWVRQAPGQGLEWMGWINTETGEPSYADDFKGRFVFSLDTSVSTAYLQISSLKAEDTAVYYCYYGPYWGQGTLVTVSS
# VL: EIVLTQSPATLSLSPGERATLSCKASQSVDHDVDSYMDWYQQKPGQAPRLLIYSASNLESGIPARFSGSGSGTDFTLTISSLEPEDFAVYYCQQINEYPYTFGGGTKVEIK
# B5: hz34F1.14 (antibody, V domains shown)
# VH: QVQLVQSGAEVKKPGASVKVSCKASGYSFTTYWMNWVRQAPGQGLTWMGMIDPSDSETHYNHLFKDRVTMTVDKSTSTAYMELSSLRSEDTAVYYCTRAIGYWGQGTLVTVSS
# VL: DVVMTQSPLSLPVTLGQPASISCKSSLSLLDSEGKTYLNWFQQRPGQSPRPLISLVSKLDSGVPDRFSGSGSGTDFTLKISRVEAEDVGVYYCWQGTHFPLTFGGGTKVEIK
# Target: huCD79b-N (human) (UniProt P40259)
# Assay: BLI (ForteBio)
row,Kd,Binder
1,3.1 nM,B1

# Target: huCD79b-N (human) (UniProt P40259)
# Assay: BLI (ForteBio), antibody loaded on sensor, antigen in solution
row,Kd,Binder
1,8.56 nM,B2
2,3.4 nM,B3
3,3.22 nM,B1
4,0.275 nM,B4
5,8.07 nM,B5
